# Data taken from publication PMC2615086 (The Journal of Cell Biology, 2009).
# T1: Fic1-His6 (S. pombe, UniProt O94701 1-272)
# T1 sequence: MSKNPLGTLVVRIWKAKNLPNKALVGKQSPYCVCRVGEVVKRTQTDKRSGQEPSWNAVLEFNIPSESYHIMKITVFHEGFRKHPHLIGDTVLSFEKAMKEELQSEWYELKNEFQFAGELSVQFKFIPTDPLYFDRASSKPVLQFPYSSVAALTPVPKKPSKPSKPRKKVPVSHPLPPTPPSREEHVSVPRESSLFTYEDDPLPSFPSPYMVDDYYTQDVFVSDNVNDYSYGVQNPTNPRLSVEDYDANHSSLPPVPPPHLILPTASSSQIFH
# Target: T1, Fic1-His6
# Experiment: quantitative in vitro binding
binder,measurement,value
MBP-Cdc15SH3 (domain or fragment) SSMSLYGEYNKSQPQLSMQRSVSPNPLGPNRRSSSVLQSQKSTSSNTSNRNNGGYSGSRPSSEMGHRYGSMSGRSMRQVSQRSTSRARSPEPTNRNSVQSKNVDPRATFTAEGEPILGYVIALYDYQAQIPEEISFQKGDTLMVLRTQEDGWWDGEIINVPNSKRGLFPSNFVQTV,Kd,~3000 nM
